Data from US20200407436A1 (published 2020).
“And” between values parts separate entries of the source, which are not always exact repeats. Equal entries are not always repeated.

Experiments:
[1] = target: TGF-beta produced and activated by BxPC3 cells; assay: cell-based or functional assay
[2] = target: T1, mature human TGF-beta 3 (human, UniProt P10600 301-412); assay: cell-based or functional assay
T1 sequence: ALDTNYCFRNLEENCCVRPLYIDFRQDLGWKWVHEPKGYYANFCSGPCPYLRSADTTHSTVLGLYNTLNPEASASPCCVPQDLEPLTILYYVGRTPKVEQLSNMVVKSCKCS

[3] = target: T2, mature human TGF-beta 2 (human, UniProt P61812 303-414); assay: cell-based or functional assay
T2 sequence: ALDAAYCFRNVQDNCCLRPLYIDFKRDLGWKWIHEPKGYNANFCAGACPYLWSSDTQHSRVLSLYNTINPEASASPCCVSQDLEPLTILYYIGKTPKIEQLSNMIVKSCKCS

[4] = target: T3, mature human TGF-beta 1 (human, UniProt P01137 279-390); assay: cell-based or functional assay
T3 sequence (P01137 279-390 limits assumed): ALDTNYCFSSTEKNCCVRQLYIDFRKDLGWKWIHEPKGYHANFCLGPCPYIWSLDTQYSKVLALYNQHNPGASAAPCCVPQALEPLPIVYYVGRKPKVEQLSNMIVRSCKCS

[5] = target: T1, mature human TGF-beta 3; assay: SPR Biacore T200, TGF-beta amine-coupled (~150 RU), Fab as analyte; heterogeneous ligand fit, component 2 (KD2; believed non-occluded, representative)
Procedure: (§1) Background subtraction binding curves were analysed using the Biacore™ T200 evaluation software (version 1.0) following standard procedures.

[6] = target: T2, mature human TGF-beta 2; assay: as above
Procedure: as §1

[7] = target: T3, mature human TGF-beta 1; assay: as above
Procedure: as §1

[8] = target: T1, mature human TGF-beta 3; assay: SPR Biacore T200, TGF-beta amine-coupled (~150 RU), Fab as analyte; heterogeneous ligand fit, component 1 (Ka1; believed occluded, weak interaction)
Procedure: as §1

[9] = target: T2, mature human TGF-beta 2; assay: as above
Procedure: as §1

[10] = target: T3, mature human TGF-beta 1; assay: as above
Procedure: as §1

[11] = target: T1, mature human TGF-beta 3; assay: cell-based or functional assay; remark: listed apart in the source
[12] = target: T2, mature human TGF-beta 2; assay: cell-based or functional assay; remark: listed apart in the source
[13] = target: T3, mature human TGF-beta 1; assay: cell-based or functional assay; remark: listed apart in the source
[14] = target: T1, mature human TGF-beta 3; assay: SPR Biacore T200, TGF-beta amine-coupled (~150 RU), Fab as analyte; heterogeneous ligand fit, component 1 (KD1; believed occluded, weak interaction)
Procedure: as §1

[15] = target: T2, mature human TGF-beta 2; assay: as above
Procedure: as §1

[16] = target: T3, mature human TGF-beta 1; assay: as above
Procedure: as §1

[17] = target: TGF-beta produced and activated by BxPC3 cells; assay: cell-based or functional assay; remark: listed apart in the source
[18] = target: T1, mature human TGF-beta 3; assay: SPR Biacore T200, TGF-beta amine-coupled (~150 RU), Fab as analyte; heterogeneous ligand fit, component 2 (ka2; believed non-occluded, representative)
Procedure: as §1

[19] = target: T2, mature human TGF-beta 2; assay: as above
Procedure: as §1

[20] = target: T3, mature human TGF-beta 1; assay: as above
Procedure: as §1

[21] = target: T1, mature human TGF-beta 3; assay: SPR Biacore T200, TGF-beta amine-coupled (~150 RU), Fab as analyte; heterogeneous ligand fit, component 1 (Kd1; believed occluded, weak interaction)
Procedure: as §1

[22] = target: T2, mature human TGF-beta 2; assay: as above
Procedure: as §1

[23] = target: T3, mature human TGF-beta 1; assay: as above
Procedure: as §1

[24] = target: T1, mature human TGF-beta 3; assay: SPR Biacore T200, TGF-beta amine-coupled (~150 RU), Fab as analyte; heterogeneous ligand fit, component 2 (kd2; believed non-occluded, representative)
Procedure: as §1

[25] = target: T2, mature human TGF-beta 2; assay: as above
Procedure: as §1

[26] = target: T3, mature human TGF-beta 1; assay: as above
Procedure: as §1

[27] = target: T2, mature human TGF-beta 2; assay: X-ray crystal structure of the complex

B1: humanised antibody 4856 Fab graft gL3gH23 (Fab, V domains shown)
VH: EVQLVESGGGLVKPGGSLRLSCAASGFSLSSYDMSWVRQAPGKGLEWIGIIYGGSGSTWYASWAKGRFTISRDSAKNSVYLQMNSLRAEDTAVYYCARGRDAGAGGSRNAYSLWGQGTLVTVSS
VL: AYDMTQSPSTLSASVGDRVTITCQASESIYSGLAWYQQKPGKAPKLLIYAASDLASGVPSRFSGSGSGTEYTLTISSLQPDDFATYYCQQTWTDGGIDNPFGGGTKVEIKR
In the case of B1, the “Geometric mean IC50, BxPC3 and HEK-Blue TGF-beta reporter gene co-culture assay” value [1] is reported as 9.1 nM, the “Geometric mean IC50, HEK-Blue TGF-beta reporter gene assay” value [2] is reported as 1.99 nM and the “Geometric mean IC50, HEK-Blue TGF-beta reporter gene assay” value [3] is reported as 0.017 nM. The “Geometric mean IC50, HEK-Blue TGF-beta reporter gene assay” value [4] was 0.41 nM.

B2: humanised antibody 4856 Fab graft gL3gH20 (Fab, V domains shown)
VH: EVQLVESGGGLVKPGGSLRLSCAASGFSLSSYDMSWVRQAPGKGLEWISIIYGGSGSTWYASWAKGRFTMSKDSAKNSVYLQMNSLRAEDTAVYYCARGRDAGAGGSRNGYSLWGQGTLVTVSS
VL: AYDMTQSPSTLSASVGDRVTITCQASESIYSGLAWYQQKPGKAPKLLIYAASDLASGVPSRFSGSGSGTEYTLTISSLQPDDFATYYCQQTWTDGGIDNPFGGGTKVEIKR
B2 was tested, and the “Geometric mean IC50, BxPC3 and HEK-Blue TGF-beta reporter gene co-culture assay” value [1] was 4.63 nM, the “Geometric mean IC50, HEK-Blue TGF-beta reporter gene assay” value [2] was 0.302 nM and the “Geometric mean IC50, HEK-Blue TGF-beta reporter gene assay” value [3] was 0.011 nM. For the same binder, the “Geometric mean IC50, HEK-Blue TGF-beta reporter gene assay” value [4] was 0.038 nM.

B3: humanised antibody 4856 Fab graft gL3gH29 (Fab, V domains shown)
VH: EVQLVESGGGLVKPGGSLRLSCAASGFSLSSYDMSWVRQAPGKGLEWIGIIYGGSGSTWYASWAKGRFTISRDSAKNSVYLQMNSLRAEDTAVYYCARGRDAGAGGSRDGYSLWGQGTLVTVSS
VL: AYDMTQSPSTLSASVGDRVTITCQASESIYSGLAWYQQKPGKAPKLLIYAASDLASGVPSRFSGSGSGTEYTLTISSLQPDDFATYYCQQTWTDGGIDNPFGGGTKVEIKR
In the case of B3, the “Geometric mean IC50, BxPC3 and HEK-Blue TGF-beta reporter gene co-culture assay” value [1] is reported as 3.77 nM, the “Geometric mean IC50, HEK-Blue TGF-beta reporter gene assay” value [2] is reported as 1.95 nM and the “Geometric mean IC50, HEK-Blue TGF-beta reporter gene assay” value [3] is reported as 0.016 nM. The “Geometric mean IC50, HEK-Blue TGF-beta reporter gene assay” value [4] was 0.255 nM.

B4: 4856 rabbit Fab (Fab, V domains shown)
VH: QSLEESGGRLVTPGTPLTLTCTASGFSLSSYDMSWVRQAPGKGLEWIGIIYGGSGSTWYASWAKGRFTMSKTSTTVDLKITSPTTEDMATYFCARGRDGGAGGSRNGYSLWGQGTLVTVSS
VL: AYDMTQTPASVEVAVGGTVTIKCQASESIYSGLAWYQQTPGQRPKLLIYAASDLASGVPSRFKGSGSGTEYTLTISGVECADAATYYCQQTWTDGGIDNPFGGGTEVVVKR
notes: Rabbit variable regions cloned into rabbit Fab no hinge (VH) and rabbit kappa (VL) vectors, expressed in Expi-293 cells; also called BSN.4856.rbFab
B4 showed a Kd [5] of 1.65 nM, a Kd [6] of 0.606 nM and a Kd [7] of 0.112 nM. For the same binder, the kon [8] was 63300 M⁻¹ s⁻¹, the kon [9] was 38700 M⁻¹ s⁻¹ and the kon [10] was 50500 M⁻¹ s⁻¹. For the same binder, the “Geomean IC50, HEK-Blue TGF-beta reporter gene assay” value [11] was 24.5 unit unclear (column head says nM, but r10 gives the nM value in brackets) and 0.54 nM, the “Geomean IC50, HEK-Blue TGF-beta reporter gene assay” value [12] was 0.3 unit unclear (column head says nM, but r10 gives the nM value in brackets) and 0.01 nM and the “Geomean IC50, HEK-Blue TGF-beta reporter gene assay” value [13] was 1.77 unit unclear (column head says nM, but r10 gives the nM value in brackets) and 0.04 nM. The Kd [14] was 12.4 nM, the Kd [15] was 1.69 nM and the Kd [16] was 6.3 nM. The “Geomean IC50, BxPC3-HEK-Blue TGF-beta reporter gene co-culture assay” value [17] was 3.7 nM, the kon [18] was 873000 M⁻¹ s⁻¹ and the kon [19] was 632000 M⁻¹ s⁻¹. The kon [20] was 455000 M⁻¹ s⁻¹, the koff [21] was 0.000782 s⁻¹ and the koff [22] was 6.55e-05 s⁻¹. It also gave a koff [23] of 0.000318 s⁻¹, a koff [24] of 0.00144 s⁻¹ and a koff [25] of 0.000383 s⁻¹. For the same binder, the koff [26] was 5.08e-05 s⁻¹.

B5: scFv 4856 (scFv)
scFv: EVQLVESGGGLVKPGGSLRLSCAASGFSLSSYDMSWVRQAPGKCLEWIGIIYGGSGSTWYASWAKGRFTISRDSAKNSVYLQMNSLRAEDTAVYYCARGRDAGAGGSRNGYSLWGQGTLVTVSSGGGGSGGGGSGGGGSGGGGSAYDMTQSPSTLSASVGDRVTITCQASESIYSGLAWYQQKPGKAPKLLIYAASDLASGVPSRFSGSGSGTEYTLTISSLQPDDFATYYCQQTWTDGGIDNPFGCGTKVEIKRTENLYFQ
B5: binds [27].
